Literature values, collected in patent US20020119915A1, “Nutritional intervention composition containing a source of proteinase inhibitor extending post meal satiety” (priority 1999, published 2002).

System: humans
Details: injection, 1981 study

B1: Cholecystokinin (peptide, UniProt P06307 21-115, looked up)
Cholecystokinin: QPVPPADPAGSGLQRAEEAPRRQLRVSQRTDGESRAHLGALLARYIQQARKAPSGRMSIVKNLQNLDPSHRISDRDYMGWMDFGRRSAEEYEYPS
modifications: Cholecystokinin
Decrease of food intake: 16%
